Test results taken from patent CN101443359A (GENENTECH INC, dated 2009).

How the values were obtained:
[1] = target: T1, 重组小鼠EGFL7蛋白 (mouse, UniProt Q9QXT5 22-275, limits assumed); assay: SPR, BIAcore 3000, room temperature, polyHis-tagged EGFL7 injected, 1:1 model, mAb stock in 50mM Tris/125mM NaCl
T1 construct: also called mEGFL7; 带polyHis标签的EGFL7
T1 sequence (looked up): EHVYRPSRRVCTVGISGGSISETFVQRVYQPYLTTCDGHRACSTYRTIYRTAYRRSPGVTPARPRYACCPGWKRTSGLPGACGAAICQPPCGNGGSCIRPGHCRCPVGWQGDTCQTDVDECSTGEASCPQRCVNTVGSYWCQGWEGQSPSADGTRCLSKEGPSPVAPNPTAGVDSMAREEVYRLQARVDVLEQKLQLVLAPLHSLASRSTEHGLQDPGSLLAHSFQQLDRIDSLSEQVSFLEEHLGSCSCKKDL

[2] = target: T2, 重组人EGFL7蛋白 (human, UniProt Q9UHF1 24-273, limits assumed); assay: as above
T2 construct: also called hEGFL7; 带polyHis标签的EGFL7
T2 sequence (looked up): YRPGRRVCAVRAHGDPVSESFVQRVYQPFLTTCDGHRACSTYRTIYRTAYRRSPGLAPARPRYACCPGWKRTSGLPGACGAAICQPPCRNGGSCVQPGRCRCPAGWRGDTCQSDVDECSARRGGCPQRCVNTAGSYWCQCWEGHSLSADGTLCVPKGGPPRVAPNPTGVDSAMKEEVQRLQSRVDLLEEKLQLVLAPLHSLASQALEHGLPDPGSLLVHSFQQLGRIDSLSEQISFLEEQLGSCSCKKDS

Kd [1]: 0.756 nM
Kd [2]: 0.473 nM
B1: 抗EGFL7鼠单抗4F11.1.8 (antibody, V domains shown)
VH: QIQLVQSGPELKKPGETVKISCKASGHTFTTYGMSWVKQAPGKGLKWMGWINTHSGVPTYADDFKGRFAFSLETSASTAHLQINNLKNEDTATYFCARLGSSAVDYWGQGTTVTVSS
VL: DIVLTQSPASLAVSLGQRATISCKASQSVDYDGDSYMSWYQQKPGQPPKLLIYGASNLESGIPARFSGSGSGTDFTLNIHPVEEEDAATYYCQQNNEDPYTFGGGTKVEIKR
notes: Hybridoma deposit PTA-7343
